Experimental data reported in publication PMC9482650, “Quantitative fragmentomics allow affinity mapping of interactomes” (Nature Communications, 2022).

T1: APBA1_2, Q02410
T1 sequence (Q02410 742-832, limits assumed, looked up): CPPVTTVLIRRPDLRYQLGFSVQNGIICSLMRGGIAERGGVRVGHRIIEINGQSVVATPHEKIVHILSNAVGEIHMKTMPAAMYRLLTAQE

T2: APBA3_1, O96018
T2 sequence (O96018 389-490, limits assumed, looked up): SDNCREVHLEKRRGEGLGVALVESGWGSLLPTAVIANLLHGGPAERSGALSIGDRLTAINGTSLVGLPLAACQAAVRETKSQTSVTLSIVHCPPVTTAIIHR

T3: DFNB31_1, Q9P202
T3 sequence (Q9P202 135-233, limits assumed, looked up): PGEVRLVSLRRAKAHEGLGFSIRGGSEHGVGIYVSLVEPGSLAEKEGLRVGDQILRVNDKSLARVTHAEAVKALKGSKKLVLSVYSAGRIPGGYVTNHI

T4: DFNB31_3, Q9P202
T4 sequence (Q9P202 811-907, limits assumed, looked up): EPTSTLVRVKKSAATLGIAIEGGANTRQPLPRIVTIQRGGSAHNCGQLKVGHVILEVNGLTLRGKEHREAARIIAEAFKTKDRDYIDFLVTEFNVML

T5: GRIP1_3, Q9Y3R0
T5 sequence (Q9Y3R0 247-346, limits assumed, looked up): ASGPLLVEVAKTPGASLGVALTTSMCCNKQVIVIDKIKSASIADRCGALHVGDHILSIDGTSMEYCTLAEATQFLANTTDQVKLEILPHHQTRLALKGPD

T6: GRIP1_7, Q9Y3R0
T6 sequence (Q9Y3R0 999-1096, limits assumed, looked up): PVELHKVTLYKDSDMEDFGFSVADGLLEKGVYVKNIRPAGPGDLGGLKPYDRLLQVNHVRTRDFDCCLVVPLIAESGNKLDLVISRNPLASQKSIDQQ

T7: MPDZ_12, O75970
T7 sequence (O75970 1857-1958, limits assumed, looked up): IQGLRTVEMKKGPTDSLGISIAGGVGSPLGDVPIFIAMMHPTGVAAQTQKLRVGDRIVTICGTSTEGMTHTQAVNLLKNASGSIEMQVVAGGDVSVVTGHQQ

T8: MPP6, Q9NZW5
T8 sequence (Q9NZW5 125-219, limits assumed, looked up): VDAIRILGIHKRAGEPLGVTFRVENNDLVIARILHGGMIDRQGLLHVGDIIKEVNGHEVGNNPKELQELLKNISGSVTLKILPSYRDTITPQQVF

T9: PDZD7_3, Q9H5P4
T9 sequence (Q9H5P4 857-944, limits assumed, looked up): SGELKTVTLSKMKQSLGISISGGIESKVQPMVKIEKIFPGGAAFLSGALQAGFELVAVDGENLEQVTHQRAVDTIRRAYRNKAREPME

T10: PTPN13_1, Q12923
T10 sequence (Q12923 1088-1188, limits assumed, looked up): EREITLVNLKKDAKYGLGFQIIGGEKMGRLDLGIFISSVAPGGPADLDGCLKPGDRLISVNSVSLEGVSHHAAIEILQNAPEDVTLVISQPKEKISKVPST

T11: SHANK1, Q9Y566
T11 sequence (Q9Y566 658-767, limits assumed, looked up): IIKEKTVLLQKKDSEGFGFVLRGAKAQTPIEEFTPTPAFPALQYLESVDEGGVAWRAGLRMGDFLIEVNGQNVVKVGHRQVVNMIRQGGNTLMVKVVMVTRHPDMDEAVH

T12: SYNJ2BP, P57105
T12 sequence (P57105 8-110, limits assumed, looked up): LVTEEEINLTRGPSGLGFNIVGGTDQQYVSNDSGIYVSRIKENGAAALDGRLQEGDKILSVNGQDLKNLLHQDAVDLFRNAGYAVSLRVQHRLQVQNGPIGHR

B1: CACNA1D, Q01668 (peptide)
chain: ADEMICITTL
B2: NEB, P20929 (peptide)
chain: MLPANYVEAI
B3: HDAC7, Q8WUI4 (peptide)
chain: LVEEEEPMNL
B4: LRRC4, Q9HBW1 (peptide)
chain: TKDKVQETQI
B5: FAM167B, Q9BTA0 (peptide)
chain: NISARRFTLC

Experiments:
Assay in all cases: holdup assay
Parameters in all cases: key: below the threshold = too weak to quantify, mostly under pKd 3.1 to 4
Details in all cases: plain residues with an end cap or a label only (N-terminal biotin on a linker: ado-ado)
AHNAK1, Q09666 = target: AHNAK1, Q09666
AHNAK1, Q09666, sequence (Q09666 4-100): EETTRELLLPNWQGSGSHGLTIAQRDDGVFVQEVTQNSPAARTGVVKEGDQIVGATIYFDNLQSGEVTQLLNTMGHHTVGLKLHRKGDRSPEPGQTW

APBA1_2, Q02410 = target: T1, APBA1_2, Q02410
APBA3_1, O96018 = target: T2, APBA3_1, O96018
DFNB31_1, Q9P202 = target: T3, DFNB31_1, Q9P202
DFNB31_3, Q9P202 = target: T4, DFNB31_3, Q9P202
DLG1_1, Q12959 = target: DLG1_1, Q12959
DLG4_2, P78352 = target: DLG4_2, P78352
DLG4_2, P78352, sequence (P78352 155-259): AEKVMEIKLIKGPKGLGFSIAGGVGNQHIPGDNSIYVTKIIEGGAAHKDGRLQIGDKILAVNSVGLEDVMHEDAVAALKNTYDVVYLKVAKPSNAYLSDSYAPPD

DLG4_3, P78352 = target: DLG4_3, P78352
DLG4_3, P78352, sequence (P78352 306-403): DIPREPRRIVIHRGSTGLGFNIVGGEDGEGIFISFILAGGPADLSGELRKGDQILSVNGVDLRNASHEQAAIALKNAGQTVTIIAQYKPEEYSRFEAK

DLG5_1, Q8TDM6 = target: DLG5_1, Q8TDM6
DLG5_1, Q8TDM6, sequence (Q8TDM6 617-713): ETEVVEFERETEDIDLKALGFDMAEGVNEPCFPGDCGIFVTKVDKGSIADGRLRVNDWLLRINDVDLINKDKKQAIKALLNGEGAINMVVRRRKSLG

FRMPD2_3, Q68DX3 = target: FRMPD2_3, Q68DX3
FRMPD2_3, Q68DX3, sequence (Q68DX3 1073-1166): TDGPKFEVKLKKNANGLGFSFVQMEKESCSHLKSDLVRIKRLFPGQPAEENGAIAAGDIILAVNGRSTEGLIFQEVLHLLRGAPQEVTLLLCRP

GRID2IP_1, A4D2P6 = target: GRID2IP_1, A4D2P6
GRID2IP_1, A4D2P6, sequence (A4D2P6 1-87): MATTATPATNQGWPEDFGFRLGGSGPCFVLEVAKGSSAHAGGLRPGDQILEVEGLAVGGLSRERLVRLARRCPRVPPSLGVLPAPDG

GRID2IP_2, A4D2P6 = target: GRID2IP_2, A4D2P6
GRID2IP_2, A4D2P6, sequence (A4D2P6 272-370): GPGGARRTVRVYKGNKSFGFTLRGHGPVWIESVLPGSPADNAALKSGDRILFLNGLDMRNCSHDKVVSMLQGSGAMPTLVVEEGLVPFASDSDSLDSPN

GRIP1_3, Q9Y3R0 = target: T5, GRIP1_3, Q9Y3R0
GRIP1_7, Q9Y3R0 = target: T6, GRIP1_7, Q9Y3R0
Inadl_8, Q8NI35 = target: Inadl_8, Q8NI35
Inadl_8, Q8NI35, sequence (Q8NI35 1425-1530): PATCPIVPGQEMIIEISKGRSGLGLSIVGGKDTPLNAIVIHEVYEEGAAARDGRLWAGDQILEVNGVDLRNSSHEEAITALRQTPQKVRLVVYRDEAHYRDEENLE

MAGI1_1, Q96QZ7 = target: MAGI1_1, Q96QZ7
MAGI1_1, Q96QZ7, sequence (Q96QZ7 1-106): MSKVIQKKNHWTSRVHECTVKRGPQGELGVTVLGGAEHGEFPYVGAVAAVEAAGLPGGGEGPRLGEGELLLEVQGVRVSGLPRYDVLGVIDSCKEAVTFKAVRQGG

MAGI1_2, Q96QZ7 = target: MAGI1_2, Q96QZ7
MAGI1_2, Q96QZ7, sequence (Q96QZ7 456-580): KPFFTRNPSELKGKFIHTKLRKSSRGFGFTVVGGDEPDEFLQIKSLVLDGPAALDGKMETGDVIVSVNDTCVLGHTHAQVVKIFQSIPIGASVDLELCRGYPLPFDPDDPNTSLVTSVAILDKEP

MPDZ_12, O75970 = target: T7, MPDZ_12, O75970
MPP6, Q9NZW5 = target: T8, MPP6, Q9NZW5
NHERF2_2, Q15599 = target: NHERF2_2, Q15599
NHERF2_2, Q15599, sequence (Q15599 142-238): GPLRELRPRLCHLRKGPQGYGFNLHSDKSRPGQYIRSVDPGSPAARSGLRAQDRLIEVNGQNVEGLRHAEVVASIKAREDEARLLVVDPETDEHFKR

PDZD7_3, Q9H5P4 = target: T9, PDZD7_3, Q9H5P4
PDZRN4_1, Q6ZMN7 = target: PDZRN4_1, Q6ZMN7
PDZRN4_1, Q6ZMN7, sequence (Q6ZMN7 213-318): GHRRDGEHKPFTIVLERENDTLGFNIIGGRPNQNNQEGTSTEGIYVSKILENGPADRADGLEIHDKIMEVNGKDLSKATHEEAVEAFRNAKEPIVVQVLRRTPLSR

PTPN13_1, Q12923 = target: T10, PTPN13_1, Q12923
SHANK1, Q9Y566 = target: T11, SHANK1, Q9Y566
SYNJ2BP, P57105 = target: T12, SYNJ2BP, P57105
TJP1_3, Q07157 = target: TJP1_3, Q07157
TJP1_3, Q07157, sequence (Q07157 416-512): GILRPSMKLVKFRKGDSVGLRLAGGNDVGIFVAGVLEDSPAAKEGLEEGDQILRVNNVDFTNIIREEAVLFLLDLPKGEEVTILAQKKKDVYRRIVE

Binder	pKd (AHNAK1, Q09666)	pKd (APBA1_2, Q02410)	pKd (APBA3_1, O96018)	pKd (DFNB31_1, Q9P202)	pKd (DFNB31_3, Q9P202)	pKd (DLG1_1, Q12959)	pKd (DLG4_2, P78352)	pKd (DLG4_3, P78352)	pKd (DLG5_1, Q8TDM6)	pKd (FRMPD2_3, Q68DX3)	pKd (GRID2IP_1, A4D2P6)	pKd (GRID2IP_2, A4D2P6)	pKd (GRIP1_3, Q9Y3R0)	pKd (GRIP1_7, Q9Y3R0)	pKd (Inadl_8, Q8NI35)	pKd (MAGI1_1, Q96QZ7)	pKd (MAGI1_2, Q96QZ7)	pKd (MPDZ_12, O75970)	pKd (MPP6, Q9NZW5)	pKd (NHERF2_2, Q15599)	other results
B1	below the threshold	4.01	below the threshold	3.63	4.89	3.91	4.02	below the threshold	below the threshold	below the threshold	below the threshold	4.94	below the threshold	below the threshold	3.61	3.51	below the threshold	4.02	below the threshold	4.63	pKd (PDZD7_3, Q9H5P4): 5.57; pKd (PDZRN4_1, Q6ZMN7): 3.72; pKd (PTPN13_1, Q12923): below the threshold; pKd (SHANK1, Q9Y566): 5.28; pKd (SYNJ2BP, P57105): 4.24; pKd (TJP1_3, Q07157): below the threshold
B2	below the threshold	below the threshold	below the threshold	below the threshold	below the threshold	below the threshold	below the threshold	below the threshold	below the threshold	below the threshold	below the threshold	below the threshold	below the threshold	below the threshold	below the threshold	below the threshold	below the threshold	below the threshold	below the threshold	below the threshold	pKd (PDZD7_3, Q9H5P4): 3.52; pKd (PDZRN4_1, Q6ZMN7): below the threshold; pKd (PTPN13_1, Q12923): below the threshold; pKd (SHANK1, Q9Y566): below the threshold; pKd (SYNJ2BP, P57105): below the threshold; pKd (TJP1_3, Q07157): below the threshold
B3	below the threshold	below the threshold	below the threshold	below the threshold	3.94	below the threshold	below the threshold	below the threshold	below the threshold	below the threshold	below the threshold	below the threshold	below the threshold	below the threshold	below the threshold	below the threshold	below the threshold	below the threshold	3.57	3.5	pKd (PDZD7_3, Q9H5P4): below the threshold; pKd (PDZRN4_1, Q6ZMN7): below the threshold; pKd (PTPN13_1, Q12923): below the threshold; pKd (SHANK1, Q9Y566): below the threshold; pKd (SYNJ2BP, P57105): below the threshold; pKd (TJP1_3, Q07157): below the threshold
B4	below the threshold	3.55	below the threshold	5.43	4.11	4.42	4.76	4.17	below the threshold	below the threshold	below the threshold	4.17	below the threshold	below the threshold	3.5	3.59	below the threshold	below the threshold	3.89	4.11	pKd (PDZD7_3, Q9H5P4): 5.51; pKd (PDZRN4_1, Q6ZMN7): 4.6; pKd (PTPN13_1, Q12923): below the threshold; pKd (SHANK1, Q9Y566): 3.76; pKd (SYNJ2BP, P57105): 4.75; pKd (TJP1_3, Q07157): below the threshold
B5	below the threshold	below the threshold	below the threshold	below the threshold	3.99	4.31	4.13	4.38	below the threshold	below the threshold	below the threshold	4.21	below the threshold	below the threshold	3.54	3.59	5.12	3.52	below the threshold	below the threshold	pKd (PDZD7_3, Q9H5P4): 3.88; pKd (PDZRN4_1, Q6ZMN7): below the threshold; pKd (PTPN13_1, Q12923): below the threshold; pKd (SHANK1, Q9Y566): below the threshold; pKd (SYNJ2BP, P57105): 3.75; pKd (TJP1_3, Q07157): below the threshold
